Patent US20070066800A1, “Apo2l(trail) receptor binding peptides and uses thereof” (priority 2003, published 2007)

biological target: Human DR5-ECD long form polypeptide (human); test: phage competition ELISA, cross-reactivity; settings: not given

| IC50 | Molecule |
| --- | --- |
| 0.423 µM | GEVCLTLCSKLR (displayed on phage) [LB952] |
| 0.0235 µM | GEVCLTECSKLR (displayed on phage) [LB959] |
| 0.0235 µM | GRVCLTLCSKLR (phage-displayed) [LB954] |
| 0.0176 µM | GEVCLTECSRLT (phage-displayed) [LB960] |
| 0.0235 µM | GEVCLTLCSRLT (displayed on phage) [LB953] |
| 0.0353 µM | GEVCLTLCSKLT (displayed on phage) [LB956] |
| 0.0118 µM | GEVCLTECSKLT (phage-displayed) [LB963] |

biological target: T1, Hu DR5 ECD (SEQ ID NO: 105) (Homo sapiens, UniProt O14763, A67V/E190F/V191A); test: Phage competition Ic50 ELISA (phagemid binding assay), competitor DR5 ECD; settings: Positive clones, competitor DR5 ECD (Comp/DR5 EcD)
T1 construct: Human DR5-ECD long form polypeptide
Description: The Apo-2L receptor binding peptides disclosed herein were identified from the bacteriophage peptide library constructs shown in Tables I and II using the following phagemid binding assay.
1. Coat microtiter plate wells with 80 ul of 1 ug/ml Apo-2L receptor DR5 ECD (SEQ ID NO: 105) (in 50 mM sodium carbonate pH 9.6) at 4° C. overnight.
2. Remove coat and block with 200 ul PBS/0.1% BSA. Incubate 1 hour at room temperature.
3. Prepare competing receptor solutions (100 ul/sample).
Dispense SOul binding buffer to row H through B in a new non-sticky 96-well plate.
Dispense 75 ul competing receptor solution to row A.
Make 3-fold serial dilutions by transferring 25 ul solution along columns except for row H (use fresh tip set for each transfer).
4. Prepare appropriate subsaturating phage dilution (predetermined from phage dilution series).
Transfer 50 ul of phage diluent to each microtiter well of the non-sticky plate. Start at row H then G,F,E,D,C,B,A respectively.
Incubate at R.T. for 2 hours.
5. Shake block off plate which has been coated with DR5 ECD (SEQ ID NO: 105) and rinse 10 times with PBS+0.05% tween 20.
6. Transfer 80 ul the mixture of competing receptor and phage from the non-sticky plate to DR5 ECD coated plate and incubate 20 minutes at room temperature.
7. Make a 1:5000 dilution of HRP conjugate anti-M13 monoclonal Ab (Amersham Pharmacia Biotech) into binding buffer.
Rinse plate 10 times with PBS/tween20 (be thorough here to remove vast excess of non displaying phage).
Add 80 ul of Ab diluent to row H through A.
8. Mix TMB peroxidase substrate and peroxidase solution B at equal volume.
Rinse plate 10 times with PBS/tween20.
Add 80 ul of substrate to row H through A.
Incubate as required to develop and stop with 80 ul 2.5M H2SO4.
A number of bacteriophage clones expressing peptides of interest were generated using the above methods and then purified using limiting dilution. In order to further characterize specific clones of interest (e.g. to determine Ic 50 values), phage clones were grown and then purified using a polyethylene glycol based method as described in Sidhu et al., Methods Enzymol. 328, 333-363 (2000). Alternative methods for generating and purifying bacteriophages are also known in the art. See, e.g. Current Protocols In Molecular Biology, Volume 1, Units 1, 5 and 6, Frederick M. Ausubel et al. eds., 1995.
Phage clones identified using the above methods were grown and then purified using the following polyethylene glycol based method. Briefly, a bacterial culture infected with a phage clone of interest is grown under conditions favorable to phage growth and then centrifuged for 10 min at 2° C. and 16,000 g. The supernatant is then transferred to a fresh centrifuge tube and a 1/5 volume of PEG-NaCl (PEG 8000 (200 g/L), NaCl (146 g/L), autoclaved) is added. The mixture is then incubated for 5 minutes at room temperature. The mixture is then centrifuged as above and the supernatant decanted. The supernatant is then respun briefly and the remaining supernatant removed. The phage pellet is then resuspended in 1/20 volume of PBS (or other analogous buffer). Insoluble matter is then pelleted by centrifugation. The supernatant containing the purified phage is saved and used in assays such as Ic 50 and Ec 50 assays that are described in the following examples.
In the Tables provided herein, “Ic 50” refers to the measure of the concentration of peptide needed to inhibit 50% of Apo-2L (e.g. amino acids 114 to 281 of SEQ ID NO: 1) binding to an Apo-2L receptor molecule (e.g. DR4-IgG (SEQ ID NO: 108) or DR5 ECD (SEQ ID NO: 105) etc.). The peptides are classified such that class 1-class 4 represent a, b, c, and d respectively.

| Molecule | IC50 |
| --- | --- |
| LB882 (GEVCLTSCERLR) | 0.0149 µM |
| LB932 (GEVCLSSCSRLR) | > 0.1 µM |
| LB931 (GEVCMTSCSRLR) | > 0.1 µM |
| Hd5-10: first generation (G1) peptide lead, SEQ ID NO: 14 (NVDQECMTTCTRLRECQLLL) | 0.0784 µM |

Results, then the molecule that gave them:

| IC50 | Molecule |
| --- | --- |
| 0.049 µM | 2Hd7-3 (CVAMTTCDKLRECMAI) [Peptide 2Hd7-3] |
| > 0.1 µM | LB939 (GEVCLTSCSRVR) |
| 0.0667 µM | 3H858-2 (IRVGEVCMTTCEKLM) [Peptide 3H858-2] |
| 0.029 µM | 2Hd7-20 (CVAMTSCDKLRLCQLL) [Peptide 2Hd7-20] |
| > 0.1 µM | LB940 (GEVCLTSCSRLK) |
| 0.0098 µM | G1A (AEVCLTSCSRLR) [Peptide G1A] |
| 0.0149 µM | 871-31-S3 (ESRGEVCLTSCERLR) [Peptide 871-31-S3] |
| 0.009 µM | LB936 (GEVCLTSCERIR) |
| 0.0238 µM | LB933 (GEVCLTTCSRIR) |
| 0.0784 µM | 2H9-15 (EVCMTSCDRLKQAFLL) [Peptide 2H9-15] |
| 0.0196 µM | 2Hd7-2 (CVAMTSCEKLRSCLLL) [Peptide 2Hd7-2] |
| 0.0112 µM | 930-S8-4 (AVGEVCLTECSRLIQR) [Peptide 930-S8-4] |
| 0.167 µM | 3H857-13 (VEAGEVCLTLCEKLM) [Peptide 3H857-13] |
| 0.049 µM | E2A (GAVCLTSCSRLR) [Peptide E2A] |
| 0.0049 µM | 2Hd7-1 (CVAMTTCSKLRQCLSA) [Peptide 2Hd7-1] |

biological target: Human DR5-ECD long form polypeptide (human); test: phage competition ELISA (Comp/DR5 ECD); settings: not given

| Molecule | IC50 |
| --- | --- |
| CVAMTTCEKLRLCQSL (phage-displayed) [2Hd7-7] | 0.0069 µM |
| CVAMTSCDKLRLCQLL (phage-displayed) [2Hd7-20] | 0.029 µM |
| CVAMTTCSKLRQCLSA (phage-displayed) [2Hd7-1] | 0.0049 µM |
| ESRGEVCLTSCERLR (phage-displayed) [871-31-S3] | 0.0149 µM |
| FEQGEVCMTLCEKLM (phage-displayed) [3H858-1] | 0.0833 µM |
| GEVCLTSCERLR (phage-displayed) [LB882] | 0.0149 µM |
| EVCMTSCEKLMSA (displayed on phage) [LB846] | 0.049 µM |
| QEVCMTSCDKLMKANWMAAM (phage-displayed) [LB867] | 0.0294 µM |
| GEACLTSCSRLR (phage-displayed) [V3A] | 0.0098 µM |
| EVCMTSCEKLM (phage-displayed) [LB848] | 29.4 µM |
| GEVCLTSCARLR (phage-displayed) [S9A] | 0.0127 µM |
| GEVCLTTCSRIR (phage-displayed) [LB933] | 0.0238 µM |
| EVCMTSCEKLMSALSL (phage-displayed) [2H9-13] | 0.0791 µM |
| EVCMTSCEKLMSAL (phage-displayed) [LB845] | 0.0392 µM |
| RLPGEVCLTSCERLL (phage-displayed) [871-4-S3] | 0.149 µM |
| CVAMTTCDKLRECMAI (phage-displayed) [2Hd7-3] | 0.049 µM |
| EVCMTSCDRLKQAFLL (phage-displayed) [2H9-15] | 0.0784 µM |
| EVCMTSCEKLMS (displayed on phage) [LB847] | 0.735 µM |
| GEVCLTSCSALR (phage-displayed) [R10A] | 0.0098 µM |
| VEAGEVCLTLCEKLM (phage-displayed) [3H857-13] | 0.167 µM |
| CVAMTSCEKLRSCLLL (displayed on phage) [2Hd7-2] | 0.0196 µM |

More lines, now with the values ahead:

| IC50 | Molecule |
| --- | --- |
| 0.423 µM | GEVCLTLCSKLR (displayed on phage) [LB952] |
| 0.0235 µM | GEVCLTECSKLR (displayed on phage) [LB959] |
| 0.0235 µM | GRVCLTLCSKLR (phage-displayed) [LB954] |
| 0.0176 µM | GEVCLTECSRLT (phage-displayed) [LB960] |
| 0.0119 µM | GEVCLTSCDRLR (phage-displayed) [LB937] |
| 0.0045 µM | GEVCLTMCSRLR (displayed on phage) [LB935] |
| 0.003 µM | GEVCLTLCSRLR (phage-displayed) [LB934] |
| 0.0235 µM | GEVCLTLCSRLT (displayed on phage) [LB953] |
| 0.009 µM | GEVCLTSCERIR (displayed on phage) [LB936] |
| 0.0353 µM | GEVCLTLCSKLT (displayed on phage) [LB956] |
| 0.0118 µM | GEVCLTECSKLT (phage-displayed) [LB963] |
| 0.0119 µM | GEVCLTSCSRIR (displayed on phage) [LB938] |

system: Apo-2L.0 and DR5; test: IC50; settings: not given
Excerpt: Table printed on a drawing sheet, FIG._4C
Title: Step 3: Truncation Scan
The patent's description of the figure: FIGS. 4A-4D provide illustrations of the protocols used to modify Apo-2L receptor binding peptides.
Where the first naming reader finds the target: passage: inhibit the interaction between Apo-2L.0 (amino acids 114 to 281 of SEQ ID NO: 1) and DR5 (SEQ ID NOs: 105 and 109)

| IC50 | Molecule |
| --- | --- |
| 0.079 µM | EVCMTSCEKLMSALSL |
| 0.039 µM | EVCMTSCEKLMSAL [C1-14] |
| 0.049 µM | EVCMTSCEKLMSA [C1-13] |
| 2.94 µM | EVCMTSCEKLM [C1-11*] |
